Measurements reported in paper PMC6016244, “Escherichia coli ZipA Organizes FtsZ Polymers into Dynamic Ring-Like Protofilament Structures” (mBio, 2018).

T1: Alexa Fluor 488-labeled FtsZ (E. coli, UniProt P0A9A6 1-383, Alexa Fluor 488 (succinimidyl ester probe, 1:10 molar ratio); labelled residues not stated)
T1 construct: Cell division protein FtsZ, Escherichia coli; wild type; Same protein as m1, with a fluorescent label; used on supported lipid bilayers; also called FtsZ-Alexa Fluor 488; FtsZ Alexa Fluor 488
T1 sequence (looked up): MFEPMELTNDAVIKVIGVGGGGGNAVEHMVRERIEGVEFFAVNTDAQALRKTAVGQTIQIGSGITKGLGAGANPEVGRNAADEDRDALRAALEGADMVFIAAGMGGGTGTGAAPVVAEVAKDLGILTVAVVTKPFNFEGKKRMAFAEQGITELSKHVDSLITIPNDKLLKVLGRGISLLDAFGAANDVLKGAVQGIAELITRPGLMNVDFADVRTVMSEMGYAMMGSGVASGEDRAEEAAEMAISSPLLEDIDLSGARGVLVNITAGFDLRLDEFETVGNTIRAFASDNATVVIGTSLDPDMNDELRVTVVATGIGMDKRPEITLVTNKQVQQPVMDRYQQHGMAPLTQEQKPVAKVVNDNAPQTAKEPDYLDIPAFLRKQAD


Experiments:
[1] = molecular target: the molecule itself; assay: lipid monolayer assay with negative stain electron microscopy; sZipA (1-2 µM) held by its His6 tag on E. coli polar lipid (or DOPC) monolayers with 0.5 to 10% DGS-NTA; FtsZ 0.5 to 5 µM added, then 2 mM GTP or 0.5 mM GMPcPP; Z-buffer (50 mM Tris-HCl pH 7.5, 300 mM KCl, 5 mM MgCl2); control: FtsZ on NTA monolayers without sZipA
[2] = molecular target: T1, Alexa Fluor 488-labeled FtsZ; assay: self-organization assay on supported lipid bilayers, confocal and STED fluorescence microscopy; Alexa Fluor 647-labeled sZipA attached to supported bilayers of E. coli polar lipids with 0.5% NTA lipids (low density); 1 µM FtsZ-Alexa Fluor 488 added, then 2 mM GTP or 0.5 mM GMPcPP; Z-buffer; settings: both partners purified

Row | Binder | binding result [1] | binding result [2]
1 | E. coli FtsZ (natural protein, UniProt P0A9A6 1-383, looked up, Cell division protein FtsZ, Escherichia coli; wild type; Unlabelled FtsZ of the lipid monolayer / electron microscopy assays; Polymerised with GTP or GMPcPP; source: plasmid pMFV56 (pET28a-FtsZ)) MFEPMELTNDAVIKVIGVGGGGGNAVEHMVRERIEGVEFFAVNTDAQALRKTAVGQTIQIGSGITKGLGAGANPEVGRNAADEDRDALRAALEGADMVFIAAGMGGGTGTGAAPVVAEVAKDLGILTVAVVTKPFNFEGKKRMAFAEQGITELSKHVDSLITIPNDKLLKVLGRGISLLDAFGAANDVLKGAVQGIAELITRPGLMNVDFADVRTVMSEMGYAMMGSGVASGEDRAEEAAEMAISSPLLEDIDLSGARGVLVNITAGFDLRLDEFETVGNTIRAFASDNATVVIGTSLDPDMNDELRVTVVATGIGMDKRPEITLVTNKQVQQPVMDRYQQHGMAPLTQEQKPVAKVVNDNAPQTAKEPDYLDIPAFLRKQAD | binds | –
2 | Alexa Fluor 647-labeled sZipA (domain or fragment, Alexa Fluor 647 (succinimidyl ester probe, 1:10 molar ratio); labelled residues not stated, Cell division protein ZipA, Escherichia coli; first 25 amino acids replaced by a His6 tag; Same construct as m2, with a fluorescent label; attached to supported lipid bilayers that contain NTA lipids; also called fluorescent sZipA; not shown: His6, N-terminal, kept) not shown | – | binds
